Here are results for one substance from patent US20140127200A1.

This experiment concerns the target HER2 expressed on the surface of breast carcinoma cells (BT-474; SK-BR-3) (human) (UniProt P04626). The experiment in a line: cell-based or functional assay.

In turn, “HER-con4(H) (…® with the 2xcon4 MRD fused to the heavy chain) (bispecific antibody)” came in with an ADCC on SK-BR-3 cells with human PBMCs (specific release), IC50 of 0.067 nM.
